# Source: patent US12618044B2, “Specification of functional cranial placode derivatives from human pluripotent stem cells” (MEMORIAL SLOAN-KETTERING CANCER CENTER, priority 2013, dated 2026)
# B1: Wnt3A: WNT protein, caudalizing cue (protein, UniProt P56704 19-352, looked up)
# Protein Wnt-3a: SYPIWWSLAVGPQYSSLGSQPILCASIPGLVPKQLRFCRNYVEIMPSVAEGIKIGIQECQHQFRGRRWNCTTVHDSLAIFGPVLDKATRESAFVHAIASAGVAFAVTRSCAEGTAAICGCSSRHQGSPGKGWKWGGCSEDIEFGGMVSREFADARENRPDARSAMNRHNNEAGRQAIASHMHLKCKCHGLSGSCEVKTCWWSQPDFRAIGDFLKDKYDSASEMVVEKHRESRGWVETLRPRYTYFKVPTERDLVYYEASPNFCEPNPETGSFGTRDRTCNVSSHGIDGCDLLCCGRGHNARAERRREKCRCVFHWCCYVSCQECTRVYDVHTCK
# B2: DKK-1: recombinant DKK-1, Wnt signaling inhibitor (protein, UniProt O94907 32-266, looked up)
# Dickkopf-related protein 1: TLNSVLNSNAIKNLPPPLGGAAGHPGSAVSAAPGILYPGGNKYQTIDNYQPYPCAEDEECGTDEYCASPTRGGDAGVQICLACRKRRKRCMRHAMCCPGNYCKNGICVSSDQNHFRGEIEETITESFGNDHSTLDGYSRRTTLSSKMYHTKGQEGSVCLRSSDCASGLCCARHFWSKICKPVLKEGQVCTKHRRKGSHGLEIFQRCYCGEGLSCRIQKDHHQASNSSRLHTCQRH
# B3: Wnt-1: caudalizing factor, wingless-type MMTV integration site family, member 1 (protein, UniProt P04628 28-370, looked up)
# Proto-oncogene Wnt-1: ANSSGRWWGIVNVASSTNLLTDSKSLQLVLEPSLQLLSRKQRRLIRQNPGILHSVSGGLQSAVRECKWQFRNRRWNCPTAPGPHLFGKIVNRGCRETAFIFAITSAGVTHSVARSCSEGSIESCTCDYRRRGPGGPDWHWGGCSDNIDFGRLFGREFVDSGEKGRDLRFLMNLHNNEAGRTTVFSEMRQECKCHGMSGSCTVRTCWMRLPTLRAVGDVLRDRFDGASRVLYGNRGSNRASRAELLRLEPEDPAHKPPSPHDLVYFEKSPNFCTYSGRLGTAGTAGRACNSSSPALDGCELLCCGRGHRTRTQRVTERCNCTFHWCCHVSCRNCTHTRVLHECL
# Tests used:
# Type in all cases: cell-based, human
# hESC [1] = experiment: Floor plate induction from hESC (FOXA2 expression); conditions: for FP competency / FOXA2 induction: added to neural rosette stage cells
# Description: (§1) For MS5 induction, established methods previously reported were used (Perrier et al., 2004). Feeder free neural induction was carried out as previously described (Chambers et al., 2009). Briefly, hESCs cultures were disaggregated using accutase for 20 minutes, washed using hESCs media and pre-plated on gelatin for 1 hour at 37° C. in the presence of ROCK inhibitor to remove MEFs. The nonadherent hESCs were washed and plated on matrigel at a density of 20,000 cells/cm2 on matrigel (BD) coated dishes in MEF conditioned hESCs media (CM) spiked with 10 ng/mL of FGF-2 and ROCK-inhibitor. The ROCK inhibitor was withdrawn, and hESCs were allowed to expand in CM for 3 days or until they were nearly confluent. The initial differentiation media conditions included knock out serum replacement (KSR) media with […] TGF-b inhibitor (SB431542, Tocris) and 500 ng/mL of Noggin (R&D). Upon day 5 of differentiation, increasing amounts of N2 media (25%, 50%, 75%) was added to the KSR media every two days while maintaining 500 ng/mL of Noggin and TGF-b inhibitor. For FP induction, Sonic C25II was added at 200 ng/ml. In some experiments, DKK-1 (R&D 100 ng/ml) FGF8 (R&D 50 ng/ml), Wnt-1 (Peprotech 50 ng/ml) and Retinoic Acid (R&D 1 uM) were added.
# Tissue was fixed using 4% paraformaldehyde and Picric acid for 15 minutes, washed with PBS, permeabalized using 0.3% Triton X in PBS, and blocked using 10% Donkey Serum. Primary antibodies used for microscopy included PAX6 (Covance), TUJ1 (Covance), ZO1 (Zymed), BF1 (FOXG1, gift E.Lai), TH (Pelfreez), NKX6.1 (DSHB) and FOXA2 (SantaCruz).
# Based on the hypothesis that FP specification in the mouse occurs at early developmental stages, at the time of or prior to neural induction, the inventors repeated SHH induction studies at Day 9, the time of rosette specification, using classic stromal-feeder mediated neural induction protocols (Elkabetz et al., 2008). Under this paradigm the inventors noticed a drastic change in cell morphology restricted to the cells treated with SHH-C25II (FIG. 15B). […] In addition to decreased expression of BF1 the inventors also observed decreased expression of PAX6, another maker expressed in the AN (FIG. 1E). […] The inventors performed dose response studies to understand how FP marker induction compared to that of NKX6.1 expression; a gene known to respond to lower concentrations of SHH. […] At higher concentrations FP markers rapidly rise, while NKX6.1 expression tapers off (FIG. 15G).
# Using this protocol, in combination with compositions and methods of the present inventions, the inventors aimed to optimize FP differentiation by adding Sonic C25II at different time points during neural induction and assaying for FOXA2 expression. Differentiation was initiated upon NSB exposure, and Sonic C25II was added at Day 1, Day 3, Day 5, or Day 7 (FIG. 16A). […] Furthermore, the differentiation conditions establish a robust platform for inducing human FOXA2+ cells in vitro.
# hESC [2] = experiment: Real-Time PCR of pluripotency and germ layer markers in treated hESC
# Description: There is also evidence for suppression of alternative embryonic germ layers such as Noggin-mediated suppression of SOX17 (endodermal lineage) and SB431542-mediated suppression of Brachyury (mesodermal lineage) (FIG. 1C).
# Total RNA was extracted using an RNeasy kit (Qiagen). For each sample, 1 ug of total RNA was treated for DNA contamination and reverse transcribed using the Quantitect RT kit (Qiagen). Amplified material was detected using Quantitect SYBR green probes and PCR kit (Qiagen) on a Mastercycler RealPlex2 (Eppendorf). Results were normalized to a HPRT control and are from 4-6 technical replicates of 2-3 independent biological samples at each data point.
# hESC [3] = experiment: Placode induction from hESC (N-SB versus PIP, SIX1 expression); conditions: pre-placode cells
# Description: A timed withdrawal of the BMP inhibitor Noggin during N-SB differentiation was also tested to determine if placodal fates could be induced via derepressing endogenous BMP signaling. A time course analysis was performed during which Noggin was removed at different time points of the N-SB protocol (FIG. 28A).
# Withdrawal of the BMP inhibitor noggin during N-SB differentiation may enhance the emergence of placodal fates by de-repressing endogenous BMP signaling. To this end, a time course study was performed by removing noggin at different time points of the NSB protocol (FIG. 11A) while monitoring the induction of placodal marker (FIG. 11B) trophoectodermal, neurectodermal by qRT-PCR analysis at day 11 of differentiation. Withdrawal of noggin at day 2 or 3 of differentiation yielded efficient induction of Six1 while noggin withdrawal at day 1 of differentiation lead to the induction of Eya1 in the absence of Six1 expression.
# Neural Induction and placode induction: Feeder-free neural induction was carried out as previously described (Chambers et al., 2009). Briefly, hESCs cultures were disaggregated using accutase for 20 minutes, washed using hESCs media and pre-plated on gelatin for 1 hour at 37° C. in the presence of ROCK inhibitor to remove MEFs. The non-adherent hESCs were washed and plated on matrigel at a density of 60,000 cells/cm2 on matrigel (BD) coated dishes in MEF conditioned hESCs media (CM) spiked with 10 ng/mL of FGF-2 and ROCK-inhibitor. The ROCK inhibitor was withdrawn after 24 hours, and hESCs were allowed to expand in CM for 2 days or until they were 95% confluent. The initial differentiation media conditions included knock out serum replacement (KSR) media with 10 μM TGF-β inhibitor (SB431542, Tocris) and 250 ng/mL of Noggin (R&D). Upon day 5 of differentiation, increasing amounts of N2 media (25%, 50%, and 75%) were added to the KSR media every two days while maintaining […] of Noggin and TGF-β inhibitor. Similar results could be obtained when using KSR-free conditions (E6 medium (Chen et al., 2011)) following adjustments in BMP signaling; data not shown). For placode induction, Noggin was removed at day3 of differentiation. In some experiments, BMP-4 (R&D 50 ng/ml), Noggin (R&D 250 ng/ml), DKK-1 (R&D 100 ng/ml), FGF8 (R&D 50 ng/ml), SU5402 (Tocris 10 μM), Wnt-3a (R&D 50 ng/ml), DAPT (Tocris, 10 μM), CHIR99021 (Stemgent, 3 μM), Cyclopamine (Tocris, 10 μM), Sonic Hedgehog (C25II-R&D 100 ng/ml), and Purmorphamine (Stemgent, 1 μM), were added.
# Microscopy, antibodies, and flow cytometry: Cells were fixed using 4% paraformaldehyde for 15 minutes, washed with PBS, permeabilized using 0.3% Triton X in PBS, and blocked using 1% BSA. Primary antibodies used for microscopy included PAX6 (Covance, DSHB), TUJ1 (Covance), BRN3A (Chemicon), AP2a (DSHB), HNK1 (Sigma), PAX3 (DSHB), SIX1 (ABR, Atlas), ISL1 (DSHB), PERIPHERIN (Santa Cruz), GSU (gift A. McNeilly), CRYAB (Chemicon), DACH1 (Proteintech), EYA1 (gift Kawakami), E-CADHERIN (Abcam), FSH (gift A. McNeilly), GATA2 (Abcam), chick GFP (Abcam), hNCAM (Santa Cruz), GLUTAMATE (Sigma), KRT14 (Labvision), SIX6 (Atlas), LHX3 (Abcam), OVOL2 (Aviva), TFAP2A (DSHB), FOXG1 (gift E. Lai), hCA (Stem Cells), and Ki67 (Sigma). Appropriate Alexa 488, Alexa 568, Alexa 647 secondary antibodies (Molecular Probes) and/or DAPI counterstaining was used for visualization. For Flow Cytometry, cells were mechanically dissociated after exposure to accutase for 20 min at 25° C. To eliminate dead cell populations in FACS analysis, we used DAPI or 7-AAD according to manufacturer's recommendation. Cells were analyzed using FACScan (Becton Dickinson) and FlowJo software (Tree Star, Inc.).
# hESC derived FP = experiment: A/P respecification of hESC derived FP by caudalizing factors
# Description: as §1
# The inventors contemplated the use of SIX6 as a putative marker of anterior FP identity. Thus SIX6 status of the hESC derived FP was used to mark respecification in response to known caudalizing agents such as FGF8, Wnt-1, and Retinoic Acid. Each of these caudalizing factors was added in combination with SHH and the resulting tissue was assessed for expression of the FP markers FOXA2 and NETRIN-1, the AN marker BF1, and putative anterior FP marker SIX6. FP generation was found not compromised in the presence of caudalizing factors.
# The inventors discovered that different factors had varied effects on marker expression (FIG. 20C).
# As mentioned above, studies had identified different enhancers that directed SHH expression to different A/P region along ventral axis (Jeong et al., 2008). […] In the absence of caudalizing factors (SHH C25II alone), LacZ expression was observed herein following transfection with the SBE2 but not the SBE1 enhancer supporting the hypothesis that hESC derived FP is anterior by default (FIG. 20D). In contrast SBE2 activity was abolished upon treatment with Wnt1 or FGF8 while SBE1 activity was induced under these conditions.
# [4] = in combination with Sonic C25II
molecule,measurement,setting,value
"O=C1Nc2cc(Br)ccc2/C1=C1/Nc2ccccc2/C1=N\O [BIO, reference compound]",FOXA2 expression,"hESC [1]; added early, BIO 100 nM",increase
same,FP competency / FOXA2 induction,hESC [1],not sufficient
"NC(=O)c1ccc(-c2nc(-c3ccc4c(c3)OCO4)c(-c3ccccn3)[nH]2)cc1 [SB431542, 4-[4-(1,3-benzodioxol-5-yl)-5-(2-pyridinyl)-1H-imidazol-2-yl]-benzamide]",Brachyury (mesodermal lineage),hESC [2],suppression
same,CDX2 expression,hESC [2],dramatic increase
same,Nanog expression,hESC [2],rapid loss
Noggin,CDX2 expression,hESC [2],Suppression
same,SOX17 (endodermal lineage),hESC [2],suppression
B1,FP competency / FOXA2 induction,hESC [1],not sufficient
same,otic placode compatible population,hESC [3],induction of a population of cells coexpressing SIX1 and SOX10
B2,FOXA2+ cells,"hESC [1]; added along with SHH at Day1, 9 days of SHH exposure",increase
same,BF1 transcript,hESC [1]; [4],more rapid rise
same,FOXA2 message and protein,hESC [1]; [4],decrease
B3,FP competency / FOXA2 induction,hESC [1],not sufficient
same,FP competency / FOXA2 induction,hESC [1]; listed as WNT1,no effect
same,midbrain FP markers CORIN and NOV,hESC derived FP,significant increase
same,SBE1 activity,hESC derived FP; SHH enhancer LacZ construct,induced
same,SBE2 activity,hESC derived FP; SHH enhancer LacZ construct,abolished
same,BF1 expression,hESC derived FP; in combination with SHH,dramatic reduction
same,FP production based on FOXA2 and Netrin-1 expression,hESC derived FP; in combination with SHH,significantly potentiated
same,SIX6 expression,hESC derived FP; in combination with SHH,significant reduction
